How the values were obtained:
[1] = target: GH43_1 from PUL15 of Prevotella copri DSM18205 (intracellular β-xylosidase / exo-β-xylanase) (Prevotella copri DSM 18205); assay: SEC; HiPrep 16/60 Sephacryl S-300 HR column, 0.5 mL/min, sodium phosphate 50 mM, NaCl 150 mM, pH 7.0; calibrated with molecular weight standards 20-700 kDa; native mass compared with the theoretical mass
[2] = target: GH10 (1) from PUL15 of Prevotella copri DSM18205 (extracellular endo-1,4-β-xylanase) (Prevotella copri DSM 18205); assay: as above

GH43_1 from PUL15 of Prevotella copri DSM18205 (intracellular β-xylosidase / exo-β-xylanase) (enzyme)
stoichiometry N [1]: 2

GH10 (1) from PUL15 of Prevotella copri DSM18205 (extracellular endo-1,4-β-xylanase) (enzyme)
stoichiometry N [2]: 2

From paper PMC8631079
